In patent US20020034537A1, “Cationic diagnostic, imaging and therapeutic agents associated with activated vascular sites” (priority 2000, published 2002):
Like-named read-outs stand apart in the source and are kept apart here.

Experiments:
[1] = Time constant of plasma clearance; format: in vivo, SCID mice; conditions: i.v. bolus, arterial blood within 30 min
[2] = Data from Yuan et al. (1995); cited from earlier work
[3] = Data from Yuan et al. (1995); cited from earlier work; remark: listed apart in the source
[4] = Isoelectric focusing of charge-modified proteins; format: physicochemical
Experimental: Isoelectric points of the proteins were determined by isoelectric focusing using polyacrylamide gel slabs on a vertical electrofocusing apparatus. pl was quantified by comparison with protein standards (Bio-Rad) after Coomassie Blue staining of the gels. The molecular weights of the proteins were analyzed by SDS-PAGE (Mini-Protean II; Bio-Rad) with and without reducing agent P-mercaptoethanol in the sample buffer.

[5] = normal tissues, Adamson et al. (1988); cited from earlier work

Anionized BSA: rhodamine-labeled bovine serum albumin anionized by succinylation
Median K, time constant of concentration decay in the plasma [1]: 40.8 100s

Native BSA: fluorescently labeled native bovine serum albumin, data from Yuan et al. (1995)
Median K, time constant of concentration decay in the plasma [2]: 80.5 100s
pI (range) [3]: 4.5

Cationized BSA: rhodamine-labeled bovine serum albumin cationized by conjugation with hexamethylenediamine
Median K, time constant of concentration decay in the plasma [1]: 12.7 100s
pI (range) [4]: 8.6-9.1

(x-lactalbumin: protein, MW=14,176; net charge −10 (Adamson et al. 1988)
microvascular permeability relative to ribonuclease [5]: approximately 50%
